This is an account of results in paper PMC10326835 (microLife, 2023).

The target of series [1] is T1, RelA (Escherichia coli, UniProt P0AG20).
T1 sequence (P0AG20 1-744): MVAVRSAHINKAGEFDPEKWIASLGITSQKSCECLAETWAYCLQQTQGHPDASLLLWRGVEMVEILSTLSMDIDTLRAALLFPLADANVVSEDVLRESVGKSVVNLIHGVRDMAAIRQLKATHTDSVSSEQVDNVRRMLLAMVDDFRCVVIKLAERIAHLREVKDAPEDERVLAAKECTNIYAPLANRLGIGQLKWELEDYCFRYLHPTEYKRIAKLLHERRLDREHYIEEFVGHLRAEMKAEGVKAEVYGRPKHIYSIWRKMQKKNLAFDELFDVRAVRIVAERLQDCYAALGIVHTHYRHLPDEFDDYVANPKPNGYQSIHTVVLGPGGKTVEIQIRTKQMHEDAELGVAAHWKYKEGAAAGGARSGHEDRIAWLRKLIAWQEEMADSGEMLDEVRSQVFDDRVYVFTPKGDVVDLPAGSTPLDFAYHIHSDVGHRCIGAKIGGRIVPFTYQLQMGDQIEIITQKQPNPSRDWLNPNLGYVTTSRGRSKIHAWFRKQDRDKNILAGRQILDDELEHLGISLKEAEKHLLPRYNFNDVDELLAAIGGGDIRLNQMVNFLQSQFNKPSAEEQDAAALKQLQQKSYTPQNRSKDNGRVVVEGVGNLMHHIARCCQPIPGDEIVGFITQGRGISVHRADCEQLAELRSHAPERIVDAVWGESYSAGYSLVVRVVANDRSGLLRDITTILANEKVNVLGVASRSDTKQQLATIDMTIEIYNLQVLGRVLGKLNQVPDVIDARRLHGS
Nature of the series: DRaCALA with […]-ppGpp in overexpression lysate. The format is cell-based.

Series [2] addresses ObgE (Escherichia coli, UniProt P42641). Nature of the series: DRaCALA with […]-ppGpp in overexpression lysate. The format is cell-based.
The target of series [3] is SpeF (Escherichia coli, UniProt P24169). Nature of the series: DRaCALA with […]-ppGpp in overexpression lysate. The format is cell-based.
Series [4] concerns the target T2, ^strepLpxA (E. coli, UniProt P0A722 1-262).
T2 sequence: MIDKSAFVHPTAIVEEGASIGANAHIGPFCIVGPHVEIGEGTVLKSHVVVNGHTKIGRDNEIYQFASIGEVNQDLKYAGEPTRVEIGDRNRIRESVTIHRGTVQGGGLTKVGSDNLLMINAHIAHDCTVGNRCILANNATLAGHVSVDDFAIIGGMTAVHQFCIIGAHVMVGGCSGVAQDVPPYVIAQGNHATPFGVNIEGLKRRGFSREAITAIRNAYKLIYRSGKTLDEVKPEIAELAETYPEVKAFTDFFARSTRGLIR
Nature of the series: MST.

For series [5], the target named is T2, ^strepLpxA. Kind of series: MST. The source holds these as a separate data set.
Substrate in series [6]: CC(=O)N[C@H]1[C@@H](OP(=O)(O)OP(=O)(O)OC[C@H]2O[C@@H](n3ccc(=O)[nH]c3=O)[C@H](O)[C@@H]2O)O[C@H](CO)[C@@H](O)[C@@H]1O
Kind of series: purified protein.

Where two headings read alike, the source gives them in different places.

SpeF, sequence (P24169 whole entry): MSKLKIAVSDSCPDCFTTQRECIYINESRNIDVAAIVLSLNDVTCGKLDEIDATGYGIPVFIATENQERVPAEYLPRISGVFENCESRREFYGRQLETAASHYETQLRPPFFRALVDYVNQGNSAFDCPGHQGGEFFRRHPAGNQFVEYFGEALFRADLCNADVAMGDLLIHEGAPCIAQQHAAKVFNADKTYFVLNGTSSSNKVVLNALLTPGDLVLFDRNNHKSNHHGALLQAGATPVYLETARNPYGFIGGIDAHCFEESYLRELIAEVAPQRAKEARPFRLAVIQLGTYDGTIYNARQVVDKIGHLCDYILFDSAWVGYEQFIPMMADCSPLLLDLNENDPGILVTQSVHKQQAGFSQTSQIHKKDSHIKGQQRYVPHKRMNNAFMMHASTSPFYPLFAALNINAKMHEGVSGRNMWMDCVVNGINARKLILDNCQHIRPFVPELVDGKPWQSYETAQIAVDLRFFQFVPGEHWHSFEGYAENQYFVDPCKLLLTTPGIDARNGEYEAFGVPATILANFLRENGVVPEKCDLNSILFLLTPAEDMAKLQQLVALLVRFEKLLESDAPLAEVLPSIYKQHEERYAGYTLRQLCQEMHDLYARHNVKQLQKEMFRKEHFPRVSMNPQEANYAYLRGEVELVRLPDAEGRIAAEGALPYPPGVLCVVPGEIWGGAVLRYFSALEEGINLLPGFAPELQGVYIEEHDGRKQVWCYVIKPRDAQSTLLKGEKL
ObgE, sequence (P42641 whole entry): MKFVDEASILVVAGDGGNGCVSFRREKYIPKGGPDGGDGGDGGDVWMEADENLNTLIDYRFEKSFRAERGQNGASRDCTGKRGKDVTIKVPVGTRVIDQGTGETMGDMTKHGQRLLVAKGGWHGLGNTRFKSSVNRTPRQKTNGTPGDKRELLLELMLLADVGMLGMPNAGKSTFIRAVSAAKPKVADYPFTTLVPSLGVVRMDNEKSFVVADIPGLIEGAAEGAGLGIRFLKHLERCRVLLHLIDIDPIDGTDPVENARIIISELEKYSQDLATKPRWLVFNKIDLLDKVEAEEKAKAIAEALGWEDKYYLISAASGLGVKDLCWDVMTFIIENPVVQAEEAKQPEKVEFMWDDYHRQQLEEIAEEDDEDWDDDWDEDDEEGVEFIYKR

Take `Nc1nc2c(ncn2[C@@H]2O[C@H](COP(=O)(O)OP(=O)(O)O)[C@@H](OP(=O)(O)OP(=O)(O)O)[C@H]2O)c(=O)[nH]1` [ppGpp]: the “% (reference binding)” value in series [1] was 100 % (reference binding). The entries for the “% relative to RelA” value in series [2] and in series [3] were 86 ± 12 % relative to RelA and 73 ± 12 % relative to RelA, respectively.

B1: ^His-SUMORnhA (enzyme, E. coli, UniProt P0A7Y4 1-155, looked up)
chain: MLKQVEIFTDGSCLGNPGPGGYGAILRYRGREKTFSAGYTRTTNNRMELMAAIVALEALKEHCEVILSTDSQYVRQGITQWIHNWKKRGWKTADKKPVKNVDLWQRLDAALGQHQIKWEWVKGHAGHPENERCDELARAAAMNPTLEDTGYQVEV
modifications: fluorescently labeled with the His-Tag Labeling Kit RED-tris-NTA
Regarding B1, the binding result in series [4] is listed as “binds”.

B2: ^HisRnhA (enzyme, E. coli, UniProt P0A7Y4 1-155, looked up)
chain: MLKQVEIFTDGSCLGNPGPGGYGAILRYRGREKTFSAGYTRTTNNRMELMAAIVALEALKEHCEVILSTDSQYVRQGITQWIHNWKKRGWKTADKKPVKNVDLWQRLDAALGQHQIKWEWVKGHAGHPENERCDELARAAAMNPTLEDTGYQVEV
modifications: fluorescently labeled with the His-Tag Labeling Kit RED-tris-NTA
Turning to B2, the binding result in series [5] was “binds”.

B3: LpxA (Escherichia coli K-12) (protein)
chain: MIDKSAFVHPTAIVEEGASIGANAHIGPFCIVGPHVEIGEGTVLKSHVVVNGHTKIGRDNEIYQFASIGEVNQDLKYAGEPTRVEIGDRNRIRESVTIHRGTVQGGGLTKVGSDNLLMINAHIAHDCTVGNRCILANNATLAGHVSVDDFAIIGGMTAVHQFCIIGAHVMVGGCSGVAQDVPPYVIAQGNHATPFGVNIEGLKRRGFSREAITAIRNAYKLIYRSGKTLDEVKPEIAELAETYPEVKAFTDFFARSTRGLIR
Turning to B3, in series [6], the Km was determined as 494 µM.

B4: ^HisRnhB (enzyme, E. coli, UniProt P10442 1-198, looked up)
chain: MIEFVYPHTQLVAGVDEVGRGPLVGAVVTAAVILDPARPIAGLNDSKKLSEKRRLALYEEIKEKALSWSLGRAEPHEIDELNILHATMLAMQRAVAGLHIAPEYVLIDGNRCPKLPMPAMAVVKGDSRVPEISAASILAKVTRDAEMAALDIVFPQYGFAQHKGYPTAFHLEKLAEHGATEHHRRSFGPVKRALGLAS
modifications: fluorescently labeled with the His-Tag Labeling Kit RED-tris-NTA
In the case of B4, in series [5], the binding result is listed as “binds”.

B5: ^His-SUMORnhB (enzyme, E. coli, UniProt P10442 1-198, looked up)
chain: MIEFVYPHTQLVAGVDEVGRGPLVGAVVTAAVILDPARPIAGLNDSKKLSEKRRLALYEEIKEKALSWSLGRAEPHEIDELNILHATMLAMQRAVAGLHIAPEYVLIDGNRCPKLPMPAMAVVKGDSRVPEISAASILAKVTRDAEMAALDIVFPQYGFAQHKGYPTAFHLEKLAEHGATEHHRRSFGPVKRALGLAS
modifications: fluorescently labeled with the His-Tag Labeling Kit RED-tris-NTA
As to B5, in series [4], the binding result was “binds”.
